Source: patent publication US20260193342A1 (ZOETIS SERVICES, published 2026)

B1: mAb2 of Table 4A, caninized anti-NGF antibody ZTS-841, canine IgGB, N434I (antibody)
heavy: EVQLVESGGDLVKPGGSLRLSCVASGFTFSSHGMHWVRQSPGKGLQWVAVINSGGSSTYYTDAVKGRFTISRDNAKNTVYLQMNSLRAEDTAMYYCAKESVGGWEQLVGPHFDYWGQGTLVIVSSASTTAPSVFPLAPSCGSTSGSTVALACLVSGYFPEPVTVSWNSGSLTSGVHTFPSVLQSSGLYSLSSMVTVPSSRWPSETFTCNVAHPASKTKVDKPVPKRENGRVPRPPDCPKCPAPEMLGGPSVFIFPPKPKDTLLIARTPEVTCVVVDLDPEDPEVQISWFVDGKQMQTAKTQPREEQFNGTYRVVSVLPIGHQDWLKGKQFTCKVNNKALPSPIERTISKARGQAHQPSVYVLPPSREELSKNTVSLTCLIKDFFPPDIDVEWQSNGQQEPESKYRTTPPQLDEDGSYFLYSKLSVDKSRWQRGDTFICAVMHEALHIHYTQESLSHSPGK
VL: QSVLTQPTSVSGSLGQRVTISCSGSTNNIGILGASWYQLFPGKAPKLLVYGNGNRPSGVPDRFSGADSGDSVTLTITGLQAEDEADYYCQSFDTTLGAHVFGGGTHLTVL
notes: also called ID No. 50
B2: mAb2 of Table 4A, caninized anti-NGF antibody ZTS-841, canine IgGB, N434K (antibody)
heavy: EVQLVESGGDLVKPGGSLRLSCVASGFTFSSHGMHWVRQSPGKGLQWVAVINSGGSSTYYTDAVKGRFTISRDNAKNTVYLQMNSLRAEDTAMYYCAKESVGGWEQLVGPHFDYWGQGTLVIVSSASTTAPSVFPLAPSCGSTSGSTVALACLVSGYFPEPVTVSWNSGSLTSGVHTFPSVLQSSGLYSLSSMVTVPSSRWPSETFTCNVAHPASKTKVDKPVPKRENGRVPRPPDCPKCPAPEMLGGPSVFIFPPKPKDTLLIARTPEVTCVVVDLDPEDPEVQISWFVDGKQMQTAKTQPREEQFNGTYRVVSVLPIGHQDWLKGKQFTCKVNNKALPSPIERTISKARGQAHQPSVYVLPPSREELSKNTVSLTCLIKDFFPPDIDVEWQSNGQQEPESKYRTTPPQLDEDGSYFLYSKLSVDKSRWQRGDTFICAVMHEALHKHYTQESLSHSPGK
VL: QSVLTQPTSVSGSLGQRVTISCSGSTNNIGILGASWYQLFPGKAPKLLVYGNGNRPSGVPDRFSGADSGDSVTLTITGLQAEDEADYYCQSFDTTLGAHVFGGGTHLTVL
notes: also called ID No. 51
B3: mAb1, caninized anti-IL31 antibody 34D03, canine IgGB, N434K (antibody)
heavy: EVQLVESGGDLVKPGGSLRLSCVASGFTFSNYGMSWVRQAPGKGLQWVATISYGGSYTYYPDNIKGRFTISRDNAKNTLYLQMNSLRAEDTAMYYCVRGYGYDTMDYWGQGTLVTVSSASTTAPSVFPLAPSCGSTSGSTVALACLVSGYFPEPVTVSWNSGSLTSGVHTFPSVLQSSGLYSLSSMVTVPSSRWPSETFTCNVAHPASKTKVDKPVPKRENGRVPRPPDCPKCPAPEMLGGPSVFIFPPKPKDTLLIARTPEVTCVVVDLDPEDPEVQISWFVDGKQMQTAKTQPREEQFNGTYRVVSVLPIGHQDWLKGKQFTCKVNNKALPSPIERTISKARGQAHQPSVYVLPPSREELSKNTVSLTCLIKDFFPPDIDVEWQSNGQQEPESKYRTTPPQLDEDGSYFLYSKLSVDKSRWQRGDTFICAVMHEALHKHYTQESLSHSPGK
light: EIVMTQSPASLSLSQEEKVTITCKASQSVSFAGTGLMHWYQQKPGQAPKLLIYRASNLEAGVPSRFSGSGSGTDFSFTISSLEPEDVAVYYCQQSREYPWTFGQGTKLEIKRNDAQPAVYLFQPSPDQLHTGSASVVCLLNSFYPKDINVKWKVDGVIQDTGIQESVTEQDKDSTYSLSSTLTMSSTEYLSHELYSCEITHKSLPSTLIKSFQRSEC
notes: VH/VL: the caninized 34D03 entries of the listing; also called ID No. 13; copies: 2 + 2
B4: mAb1, caninized anti-IL31 antibody 34D03, canine IgGB, N434L (antibody)
heavy: EVQLVESGGDLVKPGGSLRLSCVASGFTFSNYGMSWVRQAPGKGLQWVATISYGGSYTYYPDNIKGRFTISRDNAKNTLYLQMNSLRAEDTAMYYCVRGYGYDTMDYWGQGTLVTVSSASTTAPSVFPLAPSCGSTSGSTVALACLVSGYFPEPVTVSWNSGSLTSGVHTFPSVLQSSGLYSLSSMVTVPSSRWPSETFTCNVAHPASKTKVDKPVPKRENGRVPRPPDCPKCPAPEMLGGPSVFIFPPKPKDTLLIARTPEVTCVVVDLDPEDPEVQISWFVDGKQMQTAKTQPREEQFNGTYRVVSVLPIGHQDWLKGKQFTCKVNNKALPSPIERTISKARGQAHQPSVYVLPPSREELSKNTVSLTCLIKDFFPPDIDVEWQSNGQQEPESKYRTTPPQLDEDGSYFLYSKLSVDKSRWQRGDTFICAVMHEALHLHYTQESLSHSPGK
light: EIVMTQSPASLSLSQEEKVTITCKASQSVSFAGTGLMHWYQQKPGQAPKLLIYRASNLEAGVPSRFSGSGSGTDFSFTISSLEPEDVAVYYCQQSREYPWTFGQGTKLEIKRNDAQPAVYLFQPSPDQLHTGSASVVCLLNSFYPKDINVKWKVDGVIQDTGIQESVTEQDKDSTYSLSSTLTMSSTEYLSHELYSCEITHKSLPSTLIKSFQRSEC
notes: VH/VL: the caninized 34D03 entries of the listing; also called ID No. 14; copies: 2 + 2
B5: mAb1, caninized anti-IL31 antibody 34D03, canine IgGB, N434M (antibody)
heavy: EVQLVESGGDLVKPGGSLRLSCVASGFTFSNYGMSWVRQAPGKGLQWVATISYGGSYTYYPDNIKGRFTISRDNAKNTLYLQMNSLRAEDTAMYYCVRGYGYDTMDYWGQGTLVTVSSASTTAPSVFPLAPSCGSTSGSTVALACLVSGYFPEPVTVSWNSGSLTSGVHTFPSVLQSSGLYSLSSMVTVPSSRWPSETFTCNVAHPASKTKVDKPVPKRENGRVPRPPDCPKCPAPEMLGGPSVFIFPPKPKDTLLIARTPEVTCVVVDLDPEDPEVQISWFVDGKQMQTAKTQPREEQFNGTYRVVSVLPIGHQDWLKGKQFTCKVNNKALPSPIERTISKARGQAHQPSVYVLPPSREELSKNTVSLTCLIKDFFPPDIDVEWQSNGQQEPESKYRTTPPQLDEDGSYFLYSKLSVDKSRWQRGDTFICAVMHEALHMHYTQESLSHSPGK
light: EIVMTQSPASLSLSQEEKVTITCKASQSVSFAGTGLMHWYQQKPGQAPKLLIYRASNLEAGVPSRFSGSGSGTDFSFTISSLEPEDVAVYYCQQSREYPWTFGQGTKLEIKRNDAQPAVYLFQPSPDQLHTGSASVVCLLNSFYPKDINVKWKVDGVIQDTGIQESVTEQDKDSTYSLSSTLTMSSTEYLSHELYSCEITHKSLPSTLIKSFQRSEC
notes: VH/VL: the caninized 34D03 entries of the listing; also called ID No. 15; copies: 2 + 2
B6: mAb1, caninized anti-IL31 antibody 34D03, canine IgGB, N434Q (antibody)
heavy: EVQLVESGGDLVKPGGSLRLSCVASGFTFSNYGMSWVRQAPGKGLQWVATISYGGSYTYYPDNIKGRFTISRDNAKNTLYLQMNSLRAEDTAMYYCVRGYGYDTMDYWGQGTLVTVSSASTTAPSVFPLAPSCGSTSGSTVALACLVSGYFPEPVTVSWNSGSLTSGVHTFPSVLQSSGLYSLSSMVTVPSSRWPSETFTCNVAHPASKTKVDKPVPKRENGRVPRPPDCPKCPAPEMLGGPSVFIFPPKPKDTLLIARTPEVTCVVVDLDPEDPEVQISWFVDGKQMQTAKTQPREEQFNGTYRVVSVLPIGHQDWLKGKQFTCKVNNKALPSPIERTISKARGQAHQPSVYVLPPSREELSKNTVSLTCLIKDFFPPDIDVEWQSNGQQEPESKYRTTPPQLDEDGSYFLYSKLSVDKSRWQRGDTFICAVMHEALHQHYTQESLSHSPGK
light: EIVMTQSPASLSLSQEEKVTITCKASQSVSFAGTGLMHWYQQKPGQAPKLLIYRASNLEAGVPSRFSGSGSGTDFSFTISSLEPEDVAVYYCQQSREYPWTFGQGTKLEIKRNDAQPAVYLFQPSPDQLHTGSASVVCLLNSFYPKDINVKWKVDGVIQDTGIQESVTEQDKDSTYSLSSTLTMSSTEYLSHELYSCEITHKSLPSTLIKSFQRSEC
notes: VH/VL: the caninized 34D03 entries of the listing; also called ID No. 16; copies: 2 + 2

What was measured:
[1] = target: T1, canine FcRn complex (FcRn-α subunit and β-microglobulin) (canine, UniProt A0A8I3PFR8 25-347, biotin on the BAP tag by BirA (Example 5 only)); test: SPR (Biacore), biotinylated FcRn on SA chip, IgG flowed, pH 7.4, 15 C
[2] = target: T1, canine FcRn complex (FcRn-α subunit and …); test: SPR (Biacore), biotinylated FcRn on SA chip, IgG flowed, pH 6, 15 C
[3] = target: T1, canine FcRn complex (FcRn-α subunit and …); test: SPR (Biacore), biotinylated FcRn on SA chip, IgG flowed, pH 7.4, 15 C; remark: listed apart in the source
[4] = target: T1, canine FcRn complex (FcRn-α subunit and …); test: SPR (Biacore), biotinylated FcRn on SA chip, IgG flowed, pH 6, 15 C; remark: listed apart in the source

T1 sequence (A0A8I3PFR8 entry or part of it, one chain of several): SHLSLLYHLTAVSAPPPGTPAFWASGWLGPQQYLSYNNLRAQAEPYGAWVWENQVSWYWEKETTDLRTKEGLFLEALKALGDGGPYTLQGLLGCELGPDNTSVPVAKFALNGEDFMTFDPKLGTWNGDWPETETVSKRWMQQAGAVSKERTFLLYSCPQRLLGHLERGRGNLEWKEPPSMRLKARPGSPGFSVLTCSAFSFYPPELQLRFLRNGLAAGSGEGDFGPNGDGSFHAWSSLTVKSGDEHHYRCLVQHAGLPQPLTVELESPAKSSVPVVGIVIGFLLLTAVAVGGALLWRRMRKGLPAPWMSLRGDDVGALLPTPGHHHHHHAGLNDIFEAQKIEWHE

| Kd [1] | Kd [2] | Kd [3] | Kd [4] | Binder |
| --- | --- | --- | --- | --- |
| 22800 nM | 2.76 nM |  |  | B1 |
| 594 nM | 1.93 nM |  |  | B2 |
| 7.86 nM | 9.11 nM |  |  | B3 |
| 997 nM | 14.3 nM |  |  | B4 |
|  |  | 146000 nM | 14.2 nM | B5 |
|  |  | 21.8 nM | 5.91 nM | B6 |
